Measured values taken from a protein production outcome set (Wang et al. 2014).

Assay: label from the status in PepcDB records
With “MGKKLDALLGRSFKTNKFKSLITLALTRLSILKNQRQARLSQAISDVTELLKLGQHEHAYHRVDQVVKDQNTLDVLFFIHGYFTLCLDRIHLFEHNRDCPEELLEAVSGLLFAASRIGEFPELQEIRNVLISRFGKDLAARSIELRSNCGVDPKIIQKLSTRPPPKEVRMKALKEIAAENNIVLKLDQASTSTEGTTNMQGTSDVSKTKLTSKDGRGEGYGLSDSVKRGKKKYKDVADAAQAAFESAAHAAEAAQAAVELSQFSPRGHDSPGNIGGENSFHGSENKESEQEQEGNDDSSEGEGDVMSESKRSMSDSEDIIDVPVMSFREDPVKLLEKDTIIYDSEEETQPSVETITISKSKDEQNRMVGSNRADTRHVDHMVRSIEDPIMRKAGLKGPVSVRTRQVRGY” the protein production was “failed”. With “MGKKTENLKIDAKKSFLKRIAKNVKVSEGERAVEDILRCIYRNQPISTKKIGQYVKLPLPIVSKVRSILERESLLKRDDKGAVLSKKGIDFVENELGLKLKSDMKCPVCSGRNIVFDEKFEKILKKHKTYAKLRPQVNTMIDQSFATPETATARAAIMADRGDLEGKRVLFVGDDDLASIPTAMTGLCSEVVVLDIDDRLLKLISEVSKKENLNIRTVKWDFKNELPSEFVNKFDTIFTDPPYTLNGAVLFMSRGIEALGDNGILYLAFSHKPVEEYIELQKSINNMNFLIYELIPGFNFYEGTEIIGNTTFLARLVGKNLKKIEVNSEKIYTGELKPTLRYYQCMNCKKIHEVGNKVKRIEDLTCECGGKK” the protein production was “failed”. In the case of “MGKMEPFRATGDGLFIMNEGNFQYGNATLSYYDPETKKVENEIFYRANAMKLGDVAQSMIVRDTIGWVVVNNSHVIFAISTNTFKEVGRITGLTSPRYIHFISDEKAYITQIWDYRIFIVNPKTYQITGYIECPDMTMETGSTEQMVQYGKYVYVNCWSYQNRILKIDTTTDKVVDQLTVGIQPTSLVMDKNFKMWTITDGGYKGSPYGYEEPSLYRIDAETFKIEKQFKFQLGDAPSEVQLNGAGDELYWINKDIWRMSVDEERVPVRPFLKYRDTKYYGLTVSPKNGDVYVADAIDYQQQGMIYRYTEDGELVDEFYVGIIPGAFCWKLEHHHHHH”, the protein production is reported as “not failed”. In the case of “MGKSDFIKVNVSNSHNDAVAFEVKLAKDLTVAQLKTKLEILTGGCAGTMKVQVFKGDTCVSTMDNNDAQLGYYANSDGLRLHVVDS”, the protein production is reported as “not failed”. For “MGLEQAVVDFFNHMGLLNLTVGNVVMIIVGLTLVYLAIRYEMEPLLLLPIGISAVLVNLPLSHMANWPLAPQLPPEIQENIFATISYLSQQYGPPGLFDLIYYLLIKTEVVPLLIFFGLGAMTDFGPMIADPKTALLGAAAQIGVFVAMLVALALGFNLKEAASIGIIGGADGPTTIYLTTKLAPHILSATAVAAYSYMSLVPLIQPPVIKALTTPEERRIRMEQLRPVSKREKILFPIASMIVIGLLVPSAAPLIGMLMIGNLFRESGVVQRLSKAAQEELMNIVTIFLGLGIGSTMRAESFLTPKTLMILALGVVAFASATAGGVLFGKIMMKISGGKINPMIGAAGVSAVPMSARVVQRLASEEDPGNFILMHAMGPNVAGVIGTAVVAGVFLSALG”, the protein production was “failed”. With “MGLFFAQNMMYNHTITVYDRNYELVKVIPDEVDLSKYGHSRFKGKYRGAPVEASFSHNGKYAWISNYQMYGPGFNNPGSDKCHPSQKTDKSFLYRINTETLKIDRVIPVGSVPKFVATSTDENLILVSNWCSWDLSVVDINQNQEIKRIKLGPYPRGIVVDPASETAYVAVMGSYNIAKVNLRDFSVQWLRNIGSSPRHLNIDPAGKYLYASLNGEGKIAKISLPQGNLVKKIATGNAPRSMVLSANGQTLYVVNYGEDTVSKVRTSDMKVLQKVKVEPDPIGITYDPQTREVWVACYSGNIMIFQDLEHHHHHH” the protein production was “not failed”. In the case of “MGLFQIKPDIHYGANSLDILRTLEMEKVFLVTDENMVKLKVINKVTNILKSRGIEAKVYSDVKPDPTDEEIIKGMLELSAHDPDCIIALGGGSPIDACKSMIYFTNQIKRAMGQNKKPKFIAIPTTSGTGSEVTSYAVVTTKDKKIPLSDSEMLPDIAILNPEFIKTLSPSIIADTGMDVLTHAIEAYVSKSRNLFTNTFAIGAIKTVFADLVSNFENPQLEKERINLQIASCMAGVAFSNAGLGINHSIAHSLGARFHKPHGRLNAVIMSEVIQFNARNKNAAKYYREIVEALGFSPKEDVEGVEILAKAIKMRAAKMGIPNSLSELGIPKEQYFDEMEGIIDQIENDMCTGENPRRFSRIEMKQLLTDLY”, the protein production is reported as “not failed”. For “MGLKIIHNEGIEMKLQLKADLGLLLVTFFWGASILLTKVGLEGIEEYNLIALRFIIAFLLSGLIFYKHLFKIDFKTVKYAFILASVLFIVYIFATFGTKYTSVSNAGFLLCLTVIFIPILSAIFLKHIPEQKVIVGIILTIIGIGLLTLTSEFKIGNGDIFCILSALFYAIHVIITGSVTKHVNSIALGVVQLGFVGLFSLIFSFIIETPKLPSTINSWLIILALSIFCTAVAFIVQVIAQQYTTPTHTGLIFSLEPVFSAGFAFVFTGETLTRKGYLGATLILVSVLIAEVDFKSLLRVNYKKNVE”, the protein production was “failed”. For “MGLLFFHNDVTDRFNPFIHQQDVYVQIDRDGRHLSPGGTEYTLDGYNASGKKEEVTFFAGKELRKNAYLKVKAKGKYVETWEEVKFEDMPDSVQSKLKLEHHHHHH”, the protein production was “not failed”. In the case of “MGLPLVLDFDLYFCLMKCFIHQQLHLKVGYRLTERFVKTFGEERDGVWFYPRPEDIAARSYDDLRALQLSRRKAEYIVDVSRLIADGTLRLDDLEQMEDGEVMERLTAIRGIGPWTVQNFLLFGLEHHHHHH”, the protein production is reported as “failed”. In the case of “MGLQGQLSDVSSDSIPLMLLSLLAVFINHLRSFLLRLTSKSNPNLPVDDVSIASGLANIIVLADQLSLNRLFSYRCGDGGGGGSDCVVCLSKLKEGEEVRKLECRHVFHKKCLEGWLHQFNFTCPLCRSALVSDDCVSKTQRSVGRDLISCFSLH”, the protein production is reported as “failed”. For “MGLSKVEEKYRKSHEIFLKRLAALPKPEFDNTLPVHEKLDEIKKTVAEHQVTIICGETGSGKTTQLPKICLELGRGVAGLIGHTQPRRLAARSVAERIAEELKSEIGSAVGYKVRFTDHTSRDACVKLMTDGILLAETQTDRYLAAYDTIIIDEAHERSLNIDFLLGYLKQLLPRRPDLKVIITSATIDAERFSRHFNGAPVLEVSGRTYPVEILYRPLTGKDEDDAEVELTDAIVDAADELARHGEGDILVFLPGEREIRETAEALRKSTLRRNDEILPLFARLSHAEQHKIFHPSGAKRRIVLATNVAETSLTVPGIKYVIDTGLARVKRYSARAKVEQLHVEKISQAAARQRSGRCGRVSAGVCIRLFSEEDFNSRPEFTDPEIVRSNLAAVILRMASLNLGDVAAFPFLEMPDSRYINDGFQVLLELGAVEAVLEHHHHHH”, the protein production was “failed”. In the case of “MGLTKQYLRYVASAVFGVIGSQKGNIVFVTLRGEKGRYVAVPACEHVFIWDLRKGEKILILQGLKQEVTCLCPSPDGLHLAVGYEDGSIRIFSLLSGEGNVTFNGHKAAITTLKYDQLGGRLASGSKDTDIIVWDVINESGLYRLKGHKDAITQALFLREKNLLVTSGKDTMVKWWDLDTQHCFKTMVGHRTEVWGLVLLSEEKRLITGASDSELRVWDIAYLQEIEDPEEPDPKKIKGSSPGIQDTLEAEDGAFETDEAPEDRILSCRKAGSIMREGRDRVVNLAVDKTGRILACHGTDSVLELFCILSKKEIQKKMDKKMKKARKKAKLHSSKGEEEDPEVNVEMSLQDEIQRVTNIKTSAKIKSFDLIHSPHGELKAVFLLQNNLVELYSLNPSLPTPQPVRTSRITIGGHRSDVRTLSFSSDNIAVLSAAADSIKIWNRSTLQCIRTMTCEYALCSFFVPGDRQVVIGTKTGKLQLYDLASGNLLETIDAHDGALWSMSLSPDQRGFVTGGADKSVKFWDFELVKDENSTQKRLSVKQTRTLQLDEDVLCVSYSPNQKLLAVSLLDCTVKIFYVDTLKFFLSLYGHKLPVICMDISHDGALIATGSADRNVKIWGLDFGDCHKSLFAHDDSVMYLQFVPKSHLFFTAGKDHKIKQWDADKFEHIQTLEGHHQEIWCLAVSPSGDYVVSSSHDKSLRLWERTREPLILEEEREMEREAEYEESVAKEDQPAVPGETQGDSYFTGKKTIETVKAAERIMEAIELYREETAKMKEHKAICKAAGKEVPLPSNPILMAYGSISPSAYVLEIFKGIKSSELEESLLVLPFSYVPDILKLFNEFIQLGSDVELICRCLFFLLRIHFGQITSNQMLVPVIEKLRETTISKVSQVRDVIGFNMAGLDYLKRECEAKSEVMFFADATSHLEEKKRKRKKREKLILTLT”, the protein production is reported as “failed”. With “MGNGVQPLDPVAIQIGSISVKWYGVIIASAVVIALLLALSEANKRKMDKEIIVDLLIWAIPISIISARIYYVIFEWDFYKNNLGEIVKIWHGGIAIYGALIGAVLTAIIFSRIKKISFWQLADVVAPSLIIAQAIGRWGNFMNQEAHGAETTRSFLESLHLPDFIINQMYIDGAYYQPTFLYESLWNVLGFVILLIIRRTKIRRGELFLGYVIWYSFGRFFIEGMRTDSLMWGDFRVSQALSLLLIVLSIGIIIYRRLKMNPPYYMEDKFGKVVKKK” the protein production was “not failed”. With “MGNLKLALIIKSPRDDVEFLLEKQKQPAKFGDEAYDSFVDSDLWDLPSTDLQALEDGVRSGFSISILDSCSEEVDLMNFDFESTLILLLENLGIDISDVGEWRFVRSVEEPEFGPDSCVRTCFISGKLLNTDQSLQDNCKWMSMESCFDSLIDVKLGSDRVGPLVLLGLGDGSRQSMKHKLSSSLAIQEYPPGVMIVPMHSKTLKPFRTTNLVVFAPENGLGDHQGADFVAHGDALIVDPGCLSKLHVELKKIVDALPRKLIVFVTHHHRDHIDGLSAIQESNPDAILVAHAKTRHRIGGWSGNYTPVSGGENIYVNGQKLTVIFAPGHTDGHMSLLHTSTQSLIVGDHCVGQGSAFLDIRAGGNMTDYFQSTYKFLELSPNVVIPMHGRVNLWPKHMLCGYLKNRRSREKSILKATVDGAQTLYDIVAKVYSSVDRKFWWAASSNVRLHIEKLAVENKLPEGFSIQKFKASCGLRFAIRCTVGYIISKIPFKINKPGFIMSVMAAGAGYFLLYTSKKKNQIES” the protein production was “failed”. For “MGNLPALSWGPAGPLARTCGTSYGASDAQDLRRHAKIGSVELTLLGTGAPAGLPRPDCPCAACATALGEAARAATALLVDGTVLLDLTPGAAFAAARAGRSLGGVRQVLLSHPHNGPAVEVPAGLPQPARVPDGRELALLTGHRVRAMPMDAPGTGYAVTGPDGQRLLYLPPGGAPAGLDETVQPYDMVAADVVGRPDALARLRAVGALGPTTDVIAVHLDHDVPPGVELRRRLAAAGARAVPDGTTLTVGVYEDVPDVPRRTLVLGGARSGKSVEAERRLESFPDVLYVATGGSRGGDTEWAERVSVHRERRPGSWRTVETCDLVPLLKEDGPPLLIDCLSLWLTDAMDSVNAWDDDEWAGGGERALRGRVEELTAAVRETGRTVVAVSNEVGSGIVPATASGRRYRDELGRLNAAFAAECEHLLLVVAGQAMVLRGG”, the protein production was “failed”. In the case of “MGNLPPHYGGSVNLLIAALGVLGVASSGPLIAGTLGATSVTALAIAFWRNAIGAVVMAGPVVIREPKAFGRITRREFGWSAVAAVALAFHFACFITALQLTSVAAATALVCLQSGWIAVFQLFRGTRHRWPVLVGLGIAFGGVVAITGFDMGSSPEALLGDLLALAGGALAGLYTLAGGKARQSMGTGTYTTLCYGMCAAIVAVMALFSGQPLAGFDAGGWLGIIAITVCAQLVGHTAFNHLLATMSPLLVSMIILLEIPGAAILAAIFLNETLPAGTYAGLALILVGLAVVVSGQRRGRPVADRREAELGAD”, the protein production is reported as “failed”. In the case of “MGNLSLGELELTVLYDEERYDIVEQTETVQVDLEGPRGVLTVFRFARPSYEVFVDLTEAGEGSHTVDVEHRGFPGDLAVTVEPRLEHHHHHH”, the protein production is reported as “failed”.
